In patent publication US20140087995A1 (published 2014):
Numbered stars: 1 amine (or outer) side, 2 acyl side, 3 side chain; on linkers, the order of the positions; unused ones are H or OH. Bridge positions count the residues as written; N and C are the ends. Side chains are listed from the residue outwards. Ends that are not written are not given here. * marks the point of attachment. C20 diacid = O=C(O)CCCCCCCCCCCCCCCCCCC(=O)*; γGlu = O=C(O)[C@H](CCC(=O)[*:2])N[*:1]; AEEA = NCCOCCOCC(=O)O

T1: human calcitonin receptor (human, UniProt P30988 25-474)
T1 construct: whole, on cells; Used as cell membranes prepared from the transfected BHK cells (Assay VII), not as intact cells; also called hCTR; hCT
T1 sequence (looked up): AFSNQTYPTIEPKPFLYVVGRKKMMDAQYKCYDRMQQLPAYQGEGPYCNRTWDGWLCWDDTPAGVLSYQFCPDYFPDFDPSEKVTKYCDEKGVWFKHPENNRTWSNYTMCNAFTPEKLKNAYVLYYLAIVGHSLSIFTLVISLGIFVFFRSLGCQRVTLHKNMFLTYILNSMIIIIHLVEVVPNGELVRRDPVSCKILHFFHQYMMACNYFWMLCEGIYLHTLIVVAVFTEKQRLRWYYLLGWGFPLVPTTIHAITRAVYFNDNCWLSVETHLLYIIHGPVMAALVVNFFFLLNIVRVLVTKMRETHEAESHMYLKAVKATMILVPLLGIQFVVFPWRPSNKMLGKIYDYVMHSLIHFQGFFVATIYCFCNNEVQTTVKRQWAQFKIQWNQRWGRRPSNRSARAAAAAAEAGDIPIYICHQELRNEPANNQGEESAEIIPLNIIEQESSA

B1: N^α1-[(4S)-4-carboxy-4-(19-carboxynonadecanoylamino)butanoyl]-[Glu14,Arg17,Pro21,Pro26]-h-amylin (peptide)
peptide: {C20 diacid-γGlu}-KCNTATCATQRLAEFLRHSSPNFGAPLSSTNVGSNTY-NH2
modifications: disulfide 2-7
SMILES: CC(C)C[C@H](NC(=O)[C@H](CCCNC(=N)N)NC(=O)[C@H](CCC(N)=O)NC(=O)[C@@H](NC(=O)[C@H](C)NC(=O)[C@@H]1CSSC[C@H](NC(=O)[C@H](CCCCN)NC(=O)CC[C@H](NC(=O)CCCCCCCCCCCCCCCCCCC(=O)O)C(=O)O)C(=O)N[C@@H](CC(N)=O)C(=O)N[C@@H]([C@@H](C)O)C(=O)N[C@@H](C)C(=O)N[C@@H]([C@@H](C)O)C(=O)N1)[C@@H](C)O)C(=O)N[C@@H](C)C(=O)N[C@@H](CCC(=O)O)C(=O)N[C@@H](Cc1ccccc1)C(=O)N[C@@H](CC(C)C)C(=O)N[C@@H](CCCNC(=N)N)C(=O)N[C@@H](Cc1c[nH]cn1)C(=O)N[C@@H](CO)C(=O)N[C@@H](CO)C(=O)N1CCC[C@H]1C(=O)N[C@@H](CC(N)=O)C(=O)N[C@@H](Cc1ccccc1)C(=O)NCC(=O)N[C@@H](C)C(=O)N1CCC[C@H]1C(=O)N[C@@H](CC(C)C)C(=O)N[C@@H](CO)C(=O)N[C@@H](CO)C(=O)N[C@H](C(=O)N[C@@H](CC(N)=O)C(=O)N[C@H](C(=O)NCC(=O)N[C@@H](CO)C(=O)N[C@@H](CC(N)=O)C(=O)N[C@H](C(=O)N[C@@H](Cc1ccc(O)cc1)C(N)=O)[C@@H](C)O)C(C)C)[C@@H](C)O
notes: also called compound 7
B2: N^α1-[(4S)-4-carboxy-4-(19-carboxynonadecanoylamino)butanoyl]-[Glu14,Arg17,Pro21,Pro27,Arg35]-h-amylin (peptide)
peptide: {C20 diacid-γGlu}-KCNTATCATQRLAEFLRHSSPNFGAIPSSTNVGSRTY-NH2
modifications: disulfide 2-7
SMILES: CC[C@H](C)[C@H](NC(=O)[C@H](C)NC(=O)CNC(=O)[C@H](Cc1ccccc1)NC(=O)[C@H](CC(N)=O)NC(=O)[C@@H]1CCCN1C(=O)[C@H](CO)NC(=O)[C@H](CO)NC(=O)[C@H](Cc1c[nH]cn1)NC(=O)[C@H](CCCNC(=N)N)NC(=O)[C@H](CC(C)C)NC(=O)[C@H](Cc1ccccc1)NC(=O)[C@H](CCC(=O)O)NC(=O)[C@H](C)NC(=O)[C@H](CC(C)C)NC(=O)[C@H](CCCNC(=N)N)NC(=O)[C@H](CCC(N)=O)NC(=O)[C@@H](NC(=O)[C@H](C)NC(=O)[C@@H]1CSSC[C@H](NC(=O)[C@H](CCCCN)NC(=O)CC[C@H](NC(=O)CCCCCCCCCCCCCCCCCCC(=O)O)C(=O)O)C(=O)N[C@@H](CC(N)=O)C(=O)N[C@@H]([C@@H](C)O)C(=O)N[C@@H](C)C(=O)N[C@@H]([C@@H](C)O)C(=O)N1)[C@@H](C)O)C(=O)N1CCC[C@H]1C(=O)N[C@@H](CO)C(=O)N[C@@H](CO)C(=O)N[C@H](C(=O)N[C@@H](CC(N)=O)C(=O)N[C@H](C(=O)NCC(=O)N[C@@H](CO)C(=O)N[C@@H](CCCNC(=N)N)C(=O)N[C@H](C(=O)N[C@@H](Cc1ccc(O)cc1)C(N)=O)[C@@H](C)O)C(C)C)[C@@H](C)O
notes: also called compound 16
B3: N^α1-[(4S)-4-carboxy-4-(19-carboxynonadecanoylamino)butanoyl]-[His14,Arg17,Pro21,Pro27,Glu35]-h-amylin (peptide)
peptide: {C20 diacid-γGlu}-KCNTATCATQRLAHFLRHSSPNFGAIPSSTNVGSETY-NH2
modifications: disulfide 2-7
SMILES: CC[C@H](C)[C@H](NC(=O)[C@H](C)NC(=O)CNC(=O)[C@H](Cc1ccccc1)NC(=O)[C@H](CC(N)=O)NC(=O)[C@@H]1CCCN1C(=O)[C@H](CO)NC(=O)[C@H](CO)NC(=O)[C@H](Cc1c[nH]cn1)NC(=O)[C@H](CCCNC(=N)N)NC(=O)[C@H](CC(C)C)NC(=O)[C@H](Cc1ccccc1)NC(=O)[C@H](Cc1c[nH]cn1)NC(=O)[C@H](C)NC(=O)[C@H](CC(C)C)NC(=O)[C@H](CCCNC(=N)N)NC(=O)[C@H](CCC(N)=O)NC(=O)[C@@H](NC(=O)[C@H](C)NC(=O)[C@@H]1CSSC[C@H](NC(=O)[C@H](CCCCN)NC(=O)CC[C@H](NC(=O)CCCCCCCCCCCCCCCCCCC(=O)O)C(=O)O)C(=O)N[C@@H](CC(N)=O)C(=O)N[C@@H]([C@@H](C)O)C(=O)N[C@@H](C)C(=O)N[C@@H]([C@@H](C)O)C(=O)N1)[C@@H](C)O)C(=O)N1CCC[C@H]1C(=O)N[C@@H](CO)C(=O)N[C@@H](CO)C(=O)N[C@H](C(=O)N[C@@H](CC(N)=O)C(=O)N[C@H](C(=O)NCC(=O)N[C@@H](CO)C(=O)N[C@@H](CCC(=O)O)C(=O)N[C@H](C(=O)N[C@@H](Cc1ccc(O)cc1)C(N)=O)[C@@H](C)O)C(C)C)[C@@H](C)O
notes: also called compound 30
B4: N^ε1-[2-[2-[2-[[(4S)-4-carboxy-4-(19-carboxynonadecanoylamino)butanoyl]amino]ethoxy]ethoxy]acetyl]-[Arg17,Pro21,Pro27,Glu35]-h-amylin (peptide)
peptide: K([AEEA-γGlu-C20 diacid])CNTATCATQRLANFLRHSSPNFGAIPSSTNVGSETY-NH2
modifications: disulfide 2-7; N-terminus assumed
SMILES: CC[C@H](C)[C@H](NC(=O)[C@H](C)NC(=O)CNC(=O)[C@H](Cc1ccccc1)NC(=O)[C@H](CC(N)=O)NC(=O)[C@@H]1CCCN1C(=O)[C@H](CO)NC(=O)[C@H](CO)NC(=O)[C@H](Cc1c[nH]cn1)NC(=O)[C@H](CCCNC(=N)N)NC(=O)[C@H](CC(C)C)NC(=O)[C@H](Cc1ccccc1)NC(=O)[C@H](CC(N)=O)NC(=O)[C@H](C)NC(=O)[C@H](CC(C)C)NC(=O)[C@H](CCCNC(=N)N)NC(=O)[C@H](CCC(N)=O)NC(=O)[C@@H](NC(=O)[C@H](C)NC(=O)[C@@H]1CSSC[C@H](NC(=O)[C@@H](N)CCCCNC(=O)COCCOCCNC(=O)CC[C@H](NC(=O)CCCCCCCCCCCCCCCCCCC(=O)O)C(=O)O)C(=O)N[C@@H](CC(N)=O)C(=O)N[C@@H]([C@@H](C)O)C(=O)N[C@@H](C)C(=O)N[C@@H]([C@@H](C)O)C(=O)N1)[C@@H](C)O)C(=O)N1CCC[C@H]1C(=O)N[C@@H](CO)C(=O)N[C@@H](CO)C(=O)N[C@H](C(=O)N[C@@H](CC(N)=O)C(=O)N[C@H](C(=O)NCC(=O)N[C@@H](CO)C(=O)N[C@@H](CCC(=O)O)C(=O)N[C@H](C(=O)N[C@@H](Cc1ccc(O)cc1)C(N)=O)[C@@H](C)O)C(C)C)[C@@H](C)O
notes: also called compound 26
B5: N^α1-[(4S)-4-carboxy-4-(19-carboxynonadecanoylamino)butanoyl]-[Glu14,Arg17,Pro21,Pro27,Pro31]-h-amylin (peptide)
peptide: {C20 diacid-γGlu}-KCNTATCATQRLAEFLRHSSPNFGAIPSSTPVGSNTY-NH2
modifications: disulfide 2-7
SMILES: CC[C@H](C)[C@H](NC(=O)[C@H](C)NC(=O)CNC(=O)[C@H](Cc1ccccc1)NC(=O)[C@H](CC(N)=O)NC(=O)[C@@H]1CCCN1C(=O)[C@H](CO)NC(=O)[C@H](CO)NC(=O)[C@H](Cc1c[nH]cn1)NC(=O)[C@H](CCCNC(=N)N)NC(=O)[C@H](CC(C)C)NC(=O)[C@H](Cc1ccccc1)NC(=O)[C@H](CCC(=O)O)NC(=O)[C@H](C)NC(=O)[C@H](CC(C)C)NC(=O)[C@H](CCCNC(=N)N)NC(=O)[C@H](CCC(N)=O)NC(=O)[C@@H](NC(=O)[C@H](C)NC(=O)[C@@H]1CSSC[C@H](NC(=O)[C@H](CCCCN)NC(=O)CC[C@H](NC(=O)CCCCCCCCCCCCCCCCCCC(=O)O)C(=O)O)C(=O)N[C@@H](CC(N)=O)C(=O)N[C@@H]([C@@H](C)O)C(=O)N[C@@H](C)C(=O)N[C@@H]([C@@H](C)O)C(=O)N1)[C@@H](C)O)C(=O)N1CCC[C@H]1C(=O)N[C@@H](CO)C(=O)N[C@@H](CO)C(=O)N[C@H](C(=O)N1CCC[C@H]1C(=O)N[C@H](C(=O)NCC(=O)N[C@@H](CO)C(=O)N[C@@H](CC(N)=O)C(=O)N[C@H](C(=O)N[C@@H](Cc1ccc(O)cc1)C(N)=O)[C@@H](C)O)C(C)C)[C@@H](C)O
notes: also called compound 31
B6: N^ε1-[2-[2-[2-[[2-[2-[2-[[(4S)-4-carboxy-4-(19-carboxynonadecanoylamino)butanoyl]amino]ethoxy]ethoxy]acetyl]amino]ethoxy]ethoxy]acetyl]-[Arg17,Pro21,Pro27,Glu35 … (peptide)
peptide: K([AEEA-AEEA-γGlu-C20 diacid])CNTATCATQRLANFLRHSSPNFGAIPSSTNVGSETY-NH2
modifications: disulfide 2-7; N-terminus assumed
SMILES: CC[C@H](C)[C@H](NC(=O)[C@H](C)NC(=O)CNC(=O)[C@H](Cc1ccccc1)NC(=O)[C@H](CC(N)=O)NC(=O)[C@@H]1CCCN1C(=O)[C@H](CO)NC(=O)[C@H](CO)NC(=O)[C@H](Cc1c[nH]cn1)NC(=O)[C@H](CCCNC(=N)N)NC(=O)[C@H](CC(C)C)NC(=O)[C@H](Cc1ccccc1)NC(=O)[C@H](CC(N)=O)NC(=O)[C@H](C)NC(=O)[C@H](CC(C)C)NC(=O)[C@H](CCCNC(=N)N)NC(=O)[C@H](CCC(N)=O)NC(=O)[C@@H](NC(=O)[C@H](C)NC(=O)[C@@H]1CSSC[C@H](NC(=O)[C@@H](N)CCCCNC(=O)COCCOCCNC(=O)COCCOCCNC(=O)CC[C@H](NC(=O)CCCCCCCCCCCCCCCCCCC(=O)O)C(=O)O)C(=O)N[C@@H](CC(N)=O)C(=O)N[C@@H]([C@@H](C)O)C(=O)N[C@@H](C)C(=O)N[C@@H]([C@@H](C)O)C(=O)N1)[C@@H](C)O)C(=O)N1CCC[C@H]1C(=O)N[C@@H](CO)C(=O)N[C@@H](CO)C(=O)N[C@H](C(=O)N[C@@H](CC(N)=O)C(=O)N[C@H](C(=O)NCC(=O)N[C@@H](CO)C(=O)N[C@@H](CCC(=O)O)C(=O)N[C@H](C(=O)N[C@@H](Cc1ccc(O)cc1)C(N)=O)[C@@H](C)O)C(C)C)[C@@H](C)O
notes: also called compound 25

molecular target: T1, human calcitonin receptor; assay: SPA competition against 125I-calcitonin, membranes with human calcitonin receptor (Assay VII)
Description: Membranes were prepared in the following way; the cells were rinsed with PBS and incubated with Versene for approximately 5 min before harvesting. The cells were flushed with PBS and the cell-suspension was centrifuged for 5 min at 1000 rpm. Cells were homogenized (Ultrathurrax) in a buffer containing 20 mM Na-HEPES and 10 mM EDTA (pH 7.4) and centrifuged at 20.000 rpm for 15 min. The resulting pellet was resuspended, homogenized and centrifuged (20.000 rpm, 15 min) in a buffer containing 20 mM Na-HEPES and 0.1 mM EDTA (pH 7.4, buffer 2). The resulting pellet was resuspended in buffer 2 and protein concentration was measured (BCA protein Assay, Pierce). The homogenate was kept cold during the whole procedure. The membranes were kept at −80° C. until use. Assay was performed in a 384 well Optiplate (PerkinElmer) in a total volume of 40 ul. Membranes were mixed with SPA beads. Final concentration of membranes 35 ng/μL final and Final concentration of SPA beads was 0.05 mg/well. Test-compounds were dissolved in DMSO and further diluted in assay buffer (50 mM Hepes, pH 7.4, 1 mM CaCl2, 5 mM MgCl₂, 0.1% OA and 0.02% Tween20). […] The final mixture was incubated for 120 min with shaking at 400 rpm at 25° C. prior to centrifugation (1500 rpm, 10 min). Samples were analyzed on TopCounter™ (Packard). The […] was calculated using (one site binding competition analysis) GraphPad Prism5 as a measure of receptor affinity.

IC50 [µM] | Binder
0.0111 | B1
0.0171 | B2
0.0216 | B3
0.0253 | B4
0.00326 | B5
0.0434 | B6
